Laboratory results taken from PMC11575451 (The Journal of Cell Biology, 2024).

Molecular target: T1, FLAG-HA-RTN3L (human, UniProt O95197 1-1032)
T1 sequence (looked up): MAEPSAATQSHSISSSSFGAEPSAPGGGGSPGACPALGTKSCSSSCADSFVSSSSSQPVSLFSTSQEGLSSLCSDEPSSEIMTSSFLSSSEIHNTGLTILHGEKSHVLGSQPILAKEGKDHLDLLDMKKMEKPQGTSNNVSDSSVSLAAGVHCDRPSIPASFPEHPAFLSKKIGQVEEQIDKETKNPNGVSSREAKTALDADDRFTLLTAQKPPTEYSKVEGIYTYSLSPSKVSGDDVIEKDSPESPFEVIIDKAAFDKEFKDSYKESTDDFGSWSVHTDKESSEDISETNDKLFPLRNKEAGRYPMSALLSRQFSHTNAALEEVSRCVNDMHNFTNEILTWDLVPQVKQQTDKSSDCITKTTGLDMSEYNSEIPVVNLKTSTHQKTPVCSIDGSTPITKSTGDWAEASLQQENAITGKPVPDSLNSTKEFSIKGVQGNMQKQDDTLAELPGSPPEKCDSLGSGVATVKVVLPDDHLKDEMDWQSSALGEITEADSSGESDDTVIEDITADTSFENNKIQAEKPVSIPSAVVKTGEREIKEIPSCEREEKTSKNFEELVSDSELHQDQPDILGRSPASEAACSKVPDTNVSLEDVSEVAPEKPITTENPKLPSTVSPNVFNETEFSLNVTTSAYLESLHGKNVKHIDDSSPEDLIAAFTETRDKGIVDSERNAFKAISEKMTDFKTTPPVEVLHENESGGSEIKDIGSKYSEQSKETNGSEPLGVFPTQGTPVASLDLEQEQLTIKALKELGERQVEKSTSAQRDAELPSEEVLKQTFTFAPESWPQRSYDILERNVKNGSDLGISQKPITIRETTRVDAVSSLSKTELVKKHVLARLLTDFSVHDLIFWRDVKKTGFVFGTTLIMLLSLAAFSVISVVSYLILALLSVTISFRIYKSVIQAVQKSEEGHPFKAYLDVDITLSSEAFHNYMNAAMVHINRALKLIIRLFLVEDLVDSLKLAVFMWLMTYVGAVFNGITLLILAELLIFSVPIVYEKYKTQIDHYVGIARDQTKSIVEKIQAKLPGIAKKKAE
Test: co-IP

B1: PEF1 (natural protein, human (endogenous in U2OS), UniProt Q9UBV8 1-284, looked up)
chain: MASYPYRQGCPGAAGQAPGAPPGSYYPGPPNSGGQYGSGLPPGGGYGGPAPGGPYGPPAGGGPYGHPNPGMFPSGTPGGPYGGAAPGGPYGQPPPSSYGAQQPGLYGQGGAPPNVDPEAYSWFQSVDSDHSGYISMKELKQALVNCNWSSFNDETCLMMINMFDKTKSGRIDVYGFSALWKFIQQWKNLFQQYDRDRSGSISYTELQQALSQMGYNLSPQFTQLLVSRYCPRSANPAMQLDRFIQVCTQLQVLTEAFREKDTAVQGNIRLSFEDFVTMTASRML
PEF1 precipitated in the tagged sample relative to the untagged control: 4.8 x
